{"source": "patent US20150315289A1", "about": "(published 2015)", "binders": {"B1": {"name": "humanized PAM4 (hPAM4) IgG (antibody, V domains shown)", "VH": "QVQLQQSGAEVKKPGASVKVSCEASGYTFPSYVLHWVKQAPGQGLEWIGYINPYNDGTQYNEKFKGKATLTRDTSINTAYMELSRLRSDDTAVYYCARGFGGSYGFAYWGQGTLVTVSS", "VL": "DIQLTQSPSSLSASVGDRVTMTCSASSSVSSSYLYWYQQKPGKAPKLWIYSTSNLASGVPARFSGSGSGTDFTLTISSLQPEDSASYFCHQWNRYPYTFGGGTRLEIKR", "notes": "humanized IgG1 kappa; used HRP-conjugated in some ELISAs and blots; also called clivatuzumab; HRP-hPAM4"}}, "target": "MUC1 (human, UniProt P15941 24-1255, limits assumed)", "test": "immunofluorescence co-localisation on human carcinoma cell lines; MUC5AC siRNA knockdown", "data": [{"binder": "B1", "values": [{"measurement": "binding result", "value": "no binding"}]}]}
